Laboratory results: the supplement of paper PMC12764529
± gives the half width of the 95% confidence interval.

assay: folding stability dG unfold (combined trypsin and chymotrypsin); higher = more stable
Protocol: (§1)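 Folding stability of de novo designed mini-proteins (<80 aa, no Cys; designed by TrROS, TrMRF, ProteinMPNN and the joint model) was measured by cDNA display proteolysis with trypsin and chymotrypsin. Each protease was used at 11 concentrations in a threefold dilution series plus a no-protease condition. K50 was inferred by Bayesian fitting of sequencing counts, and dG unfold was derived against a sequence-predicted unfolded-state K50 (Tsuboyama et al. method). Sequences shown include variable-length N-terminal GS-type padding (SAGGSAGG...) inside a display construct carrying a PA tag. Rows were kept only if the AF2 dimer inter-PAE was >15, to exclude likely homo-oligomers.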

Sequence	folding stability dG unfold
KKRTIEIPFPANGYKVKIEVPEDQGKPIDEEEIQKLLREWHPDMPADDMPAKEIAKYLADEPGIKEVEIERS [r1_463_TrROS]	0.132 ± 0.28 kcal/mol
SAGLYLVKNKETKEIVTVPAENLSDEQLKAGFEVVKLPPVKINITVESAEEAEALAKLFPDKVEVTVNESAG [r14_638_TrROS_Hall]	< -1 kcal/mol
SAGMFYVLKTKRPTPSAPPEVLAADPNAEVETEYKLSPDTSEEEIKKIKEELKNKGWKEVKLVPISELKSAG [r5_60_JUSTAS]	< -1 kcal/mol
SAGMSTSSPTAKSTVLETSEEGNTVTKKVKVTTPSKDSSGNSSTTTTTTTITTELKGKPEPKTPEYYAKSAG [r5_70_JUSTAS]	< -1 kcal/mol
SAGMTINNTGSVEELKKLPDVVEIEKEGNKYTIKMPGETVEVELNPPKPVPKGPPYTSESEKKKKSEKSSAG [r5_2_JUSTAS]	< -1 kcal/mol
SAGMVKEVKSEEEAKKLPPGTLVKLTKPDPTSNKDVTYYRTYPDGSGGILAKSDSSGKVDLTPEIKKILSAG [r5_490_JUSTAS]	< -1 kcal/mol
SAGMVLAPSTTETRLPGLRVRTETVVTTELAPDGRPTDVVAPTTTVTVTPPAPPPVFTEESVAAAFELESAG [r14_442_JUSTAS]	< -1 kcal/mol
SAGPKINLYRLPNGFLAAKSRSTRPDGKELGTWEKTYLVPGSGKPRTLELPIYDNEKGYVIYAYEEDYSAGG [r19_185_TrMRF]	< -1 kcal/mol
SAGPPEPITWKIRNPKNGKKRKIQIWQPDEQMAVQIRDPNDGKPRREIPMPLEEARDLLKSDGFEVEPVSAG [r5_291_TrROS]	< -1 kcal/mol
SAGSELLEKFPNVKVEEYEEEIEFSPEKKEEKEEVDETDGNTITYKKIEVLPEGKAKVKIYTAKLPEVSAGG [r19_125_JUSTAS]	< -1 kcal/mol
SAMEISIDPIEDGPVRVTETYKFPGYTRITVKEIPKELLEKGVPLSELPNVPVLEEEIVEIPPPSPELKSAG [r14_856_JUSTAS]	< -1 kcal/mol
SAMKPGTVVKVTIIPTEEKLIYNVPEKTVLKSSRTVDATVTKVSTPGSKVTLEIDLPDLPPGSEIELGLSAG [r14_412_JUSTAS]	< -1 kcal/mol
SAMTIPVLVEGDIEKLEEREEEIKREVAEELGLPEDLKDLKVEVLEIEPLPDEDGKPTKVRMLVEVHLRSAG [r14_736_TrMRF]	< -1 kcal/mol
SAMVKTKDGKELEITRKAKPDELTEEEIKALAEEEVKKLVPEDLEVEVEVEISREPDGTYVVSVPVKKKSAG [r14_389_JUSTAS]	< -1 kcal/mol
SANKFSPEEYAEWMIRTARRQVKENRQQGDPEKPKKVTIHFWEEHFPPYRKRIKKEAKEDGLPVEIEPPSAG [r14_908_TrROS]	< -1 kcal/mol
SAPPLPPDAVVETESEPVGVDPTENGTLTYYRRTVRVTLPDGSLTLESLVFRDPATGSSTSSVLRETALSAG [r14_293_JUSTAS]	< -1 kcal/mol
SASDEDQKKQQEQQKPPIKPPEFPVKLNGKKIEKIRFNPPTDRIWFEWPNGKEIPIDPGMSLEEILKKISAG [r14_59_TrROS]	< -1 kcal/mol

Sequence	folding stability dG unfold
SASLPEKLAKELLPEAKEIKILEVKTEPDPNSDRPVTTVKMEAELEGGKKKLTVTLSPGPLKIKVTPEPSAG [r14_397_JUSTAS]	< -1 kcal/mol
SAVKVEEKDDVTIKTYTEPEGGLELVETIDKNGNLIAKTEIKVERKPDAKGNLYVTKVSTKTTVLNPNPISA [r9_262_JUSTAS]	< -1 kcal/mol
SDAIKNQTIEELLDQLPPGDEPGEPKEFTIPGYEIKITDFEPEKDDGGGPRPRRVIEVEDPNGPIEIPIESA [r9_279_TrROS]	< -1 kcal/mol
SDDDFADSPEAKKNMENMKPVPPPPTITINVKGDDPEDALDDIREHFPGLDPSNIKSVETTDGTLTITFQSA [r9_723_TrROS]	< -1 kcal/mol
SDPQQLPPELIDNIAKEFPHIKAIEIQPHPPGMVHVDAEYRDDGKEKRVEFQIPNPNGNTHQFEIEIRKPSA [r9_678_TrROS]	< -1 kcal/mol
SGDSIHIPPNDLEYAKRIVKDLLDNGRDTIMMNSPEYKKELKEALPGVKVEPVPPMPPPPPSPEDKDKLNSA [r9_639_TrROS]	< -1 kcal/mol
SMPTTVLGSSPSVLPDGSVRYPVAVRRYPEYGVLVEETVTYFPGSGKFVPERRVEIPPDNPAALEWVRRESA [r9_980_JUSTAS]	< -1 kcal/mol
SMTLEEALANPEKLAEELAPPPTPAVDEEIDIVDPLTNTTRPARATVLLEPGRRVIVLPEDGAEYPVDPESA [r9_548_JUSTAS]	< -1 kcal/mol
SNAKDLARELFEEHGYPIEPESIDPDEDWVTFRFEPPGEPPYDISIDVDPEEGKLKVTIDPQNGYITIPVSA [r9_1119_TrROS]	< -1 kcal/mol
SPEGKDEKGVSYPIIVEKPDPKITPEKIKKAIEEAGGKVTKIVRPKKGKLLVVDVEVTDPEKAIEAIKKDSA [r9_1154_TrMRF]	< -1 kcal/mol
SSLDDLSPEQAVDQAKFMVRMIRESRDNGKPEQYPKMINMLRRMASSAPPPDRKAVKEVLEEFKIPPEWFSA [r9_182_TrROS]	< -1 kcal/mol
SVRPDEPVRITVRFPARPVTRYRARPTGPFLGAEPVPVPSATLTLTVPAADLEAVLDALRPLGVEVEVDPSA [r9_167_TrMRF]	< -1 kcal/mol
SVVTPYPDGTVVETEPVGDTVLRLVRRPRPLPGGEPVERTTVVLEPVSTRPLPNGELVTERPVLEEEHHHSA [r9_235_JUSTAS]	< -1 kcal/mol
VSPEEKEKLEKLAAEPKPIKRTLEITTVKSEGPVELYVFTKKYFVPGKGEEVGEEVVVVPPEEVEELLAELS [r1_415_JUSTAS]	< -1 kcal/mol
WIRIPNGQPFRIKAKMKNPDGDDRKHTGKIPMEELGQKNGRPITPEDILDEIKEEARDHGAPVEDVEIEYYS [r1_338_TrROS]	< -1 kcal/mol
YEIKDVEFPPYEHPGQEYPMFKIEVKDENGKPKKKVYINPNSGQLIPPGQSLEDMPMPPPFRKFAKELADES [r1_354_TrROS]	< -1 kcal/mol

assay: folding stability dG unfold from chymotrypsin proteolysis; higher = more stable
Protocol: as §1

Sequence	folding stability dG unfold
KKRTIEIPFPANGYKVKIEVPEDQGKPIDEEEIQKLLREWHPDMPADDMPAKEIAKYLADEPGIKEVEIERS [r1_463_TrROS]	0.479 ± 0.25 kcal/mol
SAGGELLEDLNIKEIEVTEVKTYRNPENGMRMYEPTLTIKNPDGEKIKFTIEHMYDPGNPKPMIHIMSAGGS [r8_422_TrROS]	-0.212 ± 0.52 kcal/mol
SAGGESIVIPVKTLEEAKKVAEEIKEKFEKLGYKVEIFEEPETGRIIVKVTKKDKGTVSTTIITFPVPSAGG [r13_641_JUSTAS]	4.21 ± 0.76 kcal/mol
SAGGMPPNATLSGKRVDFKPVPHPDGKTLLKIYYNGKPIEEIEVPPGEAEKLIAELPENTNIVTLPESAGGS [r8_41_JUSTAS]	-0.33 ± 0.58 kcal/mol
SAGGSAGGSAGPEEFEVLEMEAELNPETGEITVRFGSPEGEEITYTVTRPGELENLKLYASAGGSAGGSAGG [r11_711_TrMRF]	-0.136 ± 0.39 kcal/mol
SAGGSAGGSYLVKIEWRHNGKPIEQTIPIDPGELPLEDIASNFPGYPWKIKVMDPNGEERPFTSAGGSAGGS [r12_540_TrROS]	-0.0033 ± 0.33 kcal/mol
SAGGSAMNVKSKETVEELFSESPEKVSIKKTTTYTFPNSKTVEITYYKPDGKKIATKNLPLSEYSSSAGGSA [r15_755_JUSTAS]	-0.238 ± 0.59 kcal/mol
SAGWVVIEIPKKEIPINPENVQIQEDNDRRYIFIPGEDADELKDQFPNKDVKIEPMPPEQMDRFMKQLSAGG [r19_271_TrROS]	-0.242 ± 0.55 kcal/mol
SAMKIYVAPGPFTVTARPALPGGEEITITTPITPEQVADPAFLEALVQALEDAGVPATYSILPAGVALPSAG [r14_60_JUSTAS]	0.597 ± 0.22 kcal/mol
